Target: T1, bovine brain myelin basic protein (MBP, Sigma), P02687
T1 chain: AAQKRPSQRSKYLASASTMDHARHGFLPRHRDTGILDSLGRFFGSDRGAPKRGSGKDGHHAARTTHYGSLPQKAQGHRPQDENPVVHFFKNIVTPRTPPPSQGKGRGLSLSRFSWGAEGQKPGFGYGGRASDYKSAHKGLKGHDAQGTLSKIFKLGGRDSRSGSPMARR

B1: OsMAPK5a, endogenous protein from rice leaf extracts (protein)
chain: MDGAPVAEFRPTMTHGGRYLLYDIFGNKFEVTNKYQPPIMPIGRGAYGIVCSVMNFETREMVAIKKIANAFNNDMDAKRTLREIKLLRHLDHENIIGIRDVIPPPIPQAFNDVYIATELMDTDLHHIIRSNQELSEEHCQYFLYQILRGLKYIHSANVIHRDLKPSNLLLNANCDLKICDFGLARPSSESDMMTEYVVTRWYRAPELLLNSTDYSAADVWSVGCIFMELINRQPLFPGRDHMHQMRLITEVIGTPTDDELGFIRNEDARKYMRHLPQYPRRTFASMFPRVQPAALDLIERMLTFNPLQRITVEEALDHPYLERLHDIADEPICLEPFSFDFEQKALNEDQMKQLIFNEAIEMNPNIRY
With B1 the “in-gel kinase assay of immunoprecipitated OsMAPK5a” value was “the OsMAPK5a kinase activity was significantly induced by P. grisea infection”.
